Measured values: PMC4425898, “High yield purification of Helicobacter pylori neutrophil-activating protein overexpressed in Escherichia coli” (BMC Biotechnology, 2015)

Biological target: the molecule itself
Assay: native gel or EMSA; native-PAGE (10% acrylamide) of load, unbound, wash and elution fractions of DEAE Sephadex and DEAE Sepharose batch chromatography; 20 mM Tris-HCl, pH 7.0 to 9.0, 50 mM NaCl (1 M NaCl for elution), 4°C

B1: Helicobacter pylori neutrophil-activating protein (natural protein)
chain: MKTFEILKHLQADAIVLFMKVHNFHWNVKGTDFFNVHKATEEIYEEFADMFDDLAERIVQLGHHPLVTLSEAIKLTRVKEETKTSFHSKDIFKEILEDYKYLEKEFKELSNTAEKEGDKVTVTYADDQLAKLQKSIWMLQAHLA
notes: subunit of about 17 kDa on SDS-PAGE; No tag is named; its own experiments show only an oligomer; also called HP-NAP; recombinant HP-NAP; source: E. coli BL21(DE3), plasmid pET42a-NAP; copies: 12
- binding result: binds
